Test results taken from patent publication US20260274985A1 (MYTHIC THERAPEUTICS, published 2026).

Tests used:
[1] = target: TROP2 on TROP2-positive NCI-H1975 cells (human) (UniProt P09758); assay: cell-based or functional assay; conditions: scale: % greater cytotoxicity compared to WT datopotamab
[2] = target: T1, Human TROP2 Protein, His Tag (Acro Biosystems) (human, UniProt P09758 27-274); assay: BLI (Octet) [1/2]
T1 construct: Bought antigen used at 50 nM in the Octet screen; also called TACSTD2; not shown: His tag
T1 sequence (looked up): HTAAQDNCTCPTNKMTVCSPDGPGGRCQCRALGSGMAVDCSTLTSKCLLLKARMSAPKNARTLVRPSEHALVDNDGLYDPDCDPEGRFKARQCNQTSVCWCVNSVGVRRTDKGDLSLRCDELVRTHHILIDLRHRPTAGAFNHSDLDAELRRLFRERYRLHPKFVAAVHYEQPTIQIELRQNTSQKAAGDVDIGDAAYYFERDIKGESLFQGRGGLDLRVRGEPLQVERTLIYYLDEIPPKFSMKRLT
Outline: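 Antibody variants from day-4 expression supernatants, diluted in 1×PBST pH 7.4 by expression level, captured on anti-human Fc tips. Association with 50 nM human TROP2-His in PBST pH 7.4 for 120 sec; dissociation in PBST pH 7.4 or pH 5.4 for 300 sec. Curves examined for koff at each pH versus parent antibody.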

[3] = target: T1, Human TROP2 Protein, His Tag (Acro …); assay: Octet BLI, IgG on anti-human Fc sensor, 50 nM TROP2; 1 = pH dependent
[4] = target: T2, Human TROP2 Protein, His Tag (Acro Biosystems) (human, UniProt P09758 27-274); assay: BLI (Octet), Ab on anti-human Fc sensor, 50 nM TROP2-His; 1 = pH dependent
T2 construct: Bought protein; not shown: His tag
T2 sequence (looked up): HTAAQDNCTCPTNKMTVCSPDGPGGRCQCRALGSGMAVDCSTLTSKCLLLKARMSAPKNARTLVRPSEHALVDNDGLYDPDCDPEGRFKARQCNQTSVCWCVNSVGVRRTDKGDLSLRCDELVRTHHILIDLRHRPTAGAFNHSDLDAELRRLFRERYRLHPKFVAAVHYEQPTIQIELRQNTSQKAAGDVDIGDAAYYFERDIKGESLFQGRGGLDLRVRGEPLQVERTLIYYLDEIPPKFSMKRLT
Method: After allowing for four days of protein expression, cell culture supernatants were collected, quantified by SDS-PAGE analysis (DNS), and the pH dependence of the variant was evaluated using biolayer interferometry (BLI) on an Octet RED 96e instrument. Briefly, cell culture supernatants were diluted based on qualitative expression level of the variant determined by visual examination of SDS-PAGE gels, 5 μL of cell culture supernatant was diluted into 195 μL of 1×PBST, pH 7.4 for high expressors, 25 μL of cell culture supernatant was diluted into 175 μL of 1×PBST, pH 7.4 for medium expressors and 100 μL of cell culture supernatant was diluted into 100 μL of 1×PBST, pH 7.4 for low expressors for loading onto the sensor tips. The resulting diluted supernatants were then captured on an anti-human Fc sensor (Forte Bio). A baseline was established using 1×PBST (50 mM Potassium Phosphate Buffer+150 mM NaCl+0.05% Tween 20) pH 7.4, and the sensor was associated with 50 nM of TROP2 (Human TROP2 Protein, His Tag, Acro Biosystems) in 1×PBST pH 7.4 for 120 sec to generate an association curve. In the dissociation phase, the antibody-antigen complex on the sensor was exposed to 1×PBST pH 7.4 or pH 5.4, for 300 sec. […]

[5] = target: T3, Human TROP2 Protein, His Tag (human, UniProt P09758 27-274); assay: BLI (Octet), IgG on anti-human Fc sensor, 50 nM human TROP2-His; legend: 1 = pH dependent
T3 construct: Bought protein; also called TACSTD2; not shown: His tag
T3 sequence (looked up): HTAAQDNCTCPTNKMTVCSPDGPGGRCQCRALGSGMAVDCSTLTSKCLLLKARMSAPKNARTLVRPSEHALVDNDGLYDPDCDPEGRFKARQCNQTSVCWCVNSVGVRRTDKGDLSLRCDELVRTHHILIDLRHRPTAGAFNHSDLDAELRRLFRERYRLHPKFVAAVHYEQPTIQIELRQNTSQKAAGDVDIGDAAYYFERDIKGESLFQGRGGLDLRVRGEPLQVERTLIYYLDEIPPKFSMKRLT

[6] = target: T4, Human TROP2 Protein, His Tag (Acro Biosystems) (human, UniProt P09758 27-274); assay: Octet BLI, IgG on anti-human Fc sensor, 50 nM TROP2-His; 1 = pH dependent
T4 construct: not shown: His tag
T4 sequence (looked up): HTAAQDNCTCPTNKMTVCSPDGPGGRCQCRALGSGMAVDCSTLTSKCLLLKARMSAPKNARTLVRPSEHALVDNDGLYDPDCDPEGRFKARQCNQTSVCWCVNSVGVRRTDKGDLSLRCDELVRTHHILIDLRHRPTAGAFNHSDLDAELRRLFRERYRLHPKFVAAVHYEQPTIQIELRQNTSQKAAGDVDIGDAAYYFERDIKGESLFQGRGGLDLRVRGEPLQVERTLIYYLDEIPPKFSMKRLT

[7] = target: T5, Human TROP2 Protein, His Tag (Acro Biosystems) (human, UniProt P09758 27-274); assay: BLI (Octet) [2/2]
T5 construct: not shown: His tag
T5 sequence (looked up): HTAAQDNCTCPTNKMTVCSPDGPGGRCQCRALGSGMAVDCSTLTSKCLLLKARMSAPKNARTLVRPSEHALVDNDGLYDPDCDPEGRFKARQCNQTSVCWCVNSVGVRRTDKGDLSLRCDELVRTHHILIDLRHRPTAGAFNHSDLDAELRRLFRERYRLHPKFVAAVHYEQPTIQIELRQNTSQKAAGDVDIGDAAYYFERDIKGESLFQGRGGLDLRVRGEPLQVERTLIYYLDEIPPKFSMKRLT

[8] = target: T4, Human TROP2 Protein, His Tag (Acro …); assay: Octet BLI, IgG on anti-human Fc sensor, 50 nM TROP2-His; 2 = No change vs parent
[9] = target: T4, Human TROP2 Protein, His Tag (Acro …); assay: Octet BLI, IgG on anti-human Fc sensor, 50 nM TROP2-His; 1 = pH dependent; remark: listed apart in the source
[10] = target: T4, Human TROP2 Protein, His Tag (Acro …); assay: BLI (Octet)

B1: MYT11741 (antibody, V domains shown)
VH: QVQLQESGPGLVKPSETLSLTCTVSGGSISSYGVHWIRQPPGKGLEWIGVIWTSGVTDYNSALMGRVTISVDTSKNQFSLKLSSVTAADTAVYYCARDGDYDRYTHDYWGQGTLVTVSS
VL: DIVMTQSPDSLAVSLGERATINCRASKSVSTSGYSYMHWYQQKPGQPPKLLIYLASNLESGVPDRFSGSGSGTDFTLTISSLQAEDVAVYYCQHSRELPYTFGQGTKLEIK
Which cytotoxicity on TROP2-positive NCI-H1975 cells (antibody complexed to secondary antibody-MMAF, cell titer glow assay) [1] does the source give for B1 here?
Its cytotoxicity on TROP2-positive NCI-H1975 cells (antibody complexed to secondary antibody-MMAF, cell titer glow assay) is 30.

Does B1 bind [2]?
Result: binds

B2: MYT11773 (antibody, V domains shown)
VH: QVQLQESGPGLVKPSETLSLTCTVSGGSISSYGVHWIRQPPGKGLEWIGVIWTSGVTDYNSALMGRVTISVDTSKNQFSLKLSSVTAADTAVYYCARDGDYDRYTMDYWGQGTLVTVSS
VL: DIVMTQSPDSLAVSLGERATINCRASKSVSTSGYSYMHWYQQKPGQPPKLLIYLASNLESGVPDRFSGSGSGTDFTLTISSLQAEDVAVYYCQHSRELPHTFGQGTKLEIK
notes: hu7E6SVG variant, His at LCV position 100 (L3 08); screened as IgG in Expi293 supernatant
Does B2 bind [3]?
Result: binds

B3: MYT11616 (antibody, V domains shown)
VH: QVQLQQSGSELKKPGASVKVSCKASGYTFTNYGMNWVKQAPGQGLKWMGWINTYTGEPTYTDDFKGRFAFSLDTSVSTAYLQISSLKADDTAVYFCARGGFGSSYWYFDVWGQGSLVTVSS
VL: DIQLTQSPSSLSASVGDRVSITCKASQDVSIHVAWYQQKPGKAPKLLIYSASYRYTGVPDRFSGSGSGTDFTLTISSLQPEDFAVYYCQQHYITPLTFGAGTKVEIK
notes: Sacituzumab variant, His at LCV position 32 (L1 09)
Does B3 bind [4]?
Result: binds

B4: MYT11688 (antibody, V domains shown)
VH: QVQLVQSGAEVKKPGASVKVSCKASGYTFTTAGMQWVRQAPGQGLEWMGWINTHSGVPKYAEDFKGRVTISADTSTSTAYLQLSSLKSEDTAVYYCARSGFGSSYWYFDVWGQGTLVTVSS
VL: DIQMTQSPSSLSASVGDRVTITCKASQDVSTAVAWYQQKPGKAPKLLIYHASYRYTGVPSRFSGSGSGTDFTLTISSLQPEDFAVYYCQQHYITPLTFGQGTKLEIK
notes: IgG from supernatant; His at LCV position 50; also called datopotamab variant L2 01
Does B4 bind [5]?
Result: binds

B5: MYT12399 (antibody, V domains shown)
VH: QVQLVQSGAEVKKPGASVKVSCKASGYTFTTAGMQWVRQAPGQGLEWMGWINTHSGVPKYAEDFKGRVTISADTSTSTAYLQLSSLKSEDTAVYYCARSGFGSSYWYFDVWGQGTLVTVSS
VL: DIQMTQSPSSLSASVGDRVTITCKASQHVSTAVAWYQQKPGKAPKLLIYSHSYRYTGVPSRFSGSGSGTDFTLTISSLQPEDFAVYYCHQHYITPLTFGQGTKLEIK
notes: datopotamab VL 28, 51, 89 substituted
Does B5 bind [6]?
Result: binds

B6: MYT11687 (antibody, V domains shown)
VH: QVQLVQSGAEVKKPGASVKVSCKASGYTFTTAGMQWVRQAPGQGLEWMGWINTHSGVPKYAEDFKGRVTISADTSTSTAYLQLSSLKSEDTAVYYCARSGFGSSYWYFDVWGQGTLVTVSS
VL: DIQMTQSPSSLSASVGDRVTITCKASQDVSTAVHWYQQKPGKAPKLLIYSASYRYTGVPSRFSGSGSGTDFTLTISSLQPEDFAVYYCQQHYITPLTFGQGTKLEIK
notes: IgG from supernatant; His at LCV position 34; also called datopotamab variant L1 11
Does B6 bind [5]?
Result: binds

B7: MYT11619 (antibody, V domains shown)
VH: QVQLQQSGSELKKPGASVKVSCKASGYTFTNYGMNWVKQAPGQGLKWMGWINTYTGEPTYTDDFKGRFAFSLDTSVSTAYLQISSLKADDTAVYFCARGGFGSSYWYFDVWGQGSLVTVSS
VL: DIQLTQSPSSLSASVGDRVSITCKASQDVSIAVAWYQQKPGKAPKLLIYHASYRYTGVPDRFSGSGSGTDFTLTISSLQPEDFAVYYCQQHYITPLTFGAGTKVEIK
notes: Sacituzumab variant, His at LCV position 50 (L2 01)
Does B7 bind [4]?
Result: binds

B8: MYT13257 (antibody, V domains shown)
VH: QVQLVQSGAEVKKPGASVKVSCKASGYTFTTAGMQWVRQAPGQGLEWMGWINTHSGVPKYAEDFKGRVTISADTSTSTAYLQLSSLKSEDTAVYYCAHSGFGSSYWYFDVWGQGTLVTVSS
VL: DIQMTQSPSSLSASVGDRVTITCKASQDHSTAVAWYQQKPGKAPKLLIYSASYRYTGVPSRFSGSGSGTDFTLTISSLQPEDFAVYYCQQHYITPLTFGQGTKLEIK
notes: Full-length IgG from Expi293 supernatant; also called datopotamab heavy chain and light chain pairing variant
Does B8 bind [7]?
Result: binds

B9: MYT12296 (antibody, V domains shown)
VH: QVQLQQSGSELKKPGASVKVSCKASGYTFTNHGMNWVKQAPGQGLKWMGWINTYTGEPTYTHDFKGRFAFSLDTSVSTAYLQISSLKADDTAVYFCARGGFGSSYWYFDVWGQGSLVTVSS
VL: DIQLTQSPSSLSASVGDRVSITCKASQDVSIAVAWYQQKPGKAPKLLIYSASYRYTGVPDRFSGSGSGTDFTLTISSLQPEDFAVYYCQQHYITPLTFGAGTKVEIK
notes: sacituzumab VH 32, 62 -> H
Does B9 bind [8]?
Result: binds

B10: MYT12317 (antibody, V domains shown)
VH: QVQLQQSGSELKKPGASVKVSCKASGYTFTNYGMNWVKQAPGQGLKWMGWINTYTGEPTYTDHFHGRFAFSLDTSVSTAYLQISSLKADDTAVYFCARGGFGSSYWYFDVWGQGSLVTVSS
VL: DIQLTQSPSSLSASVGDRVSITCKASQDVSIAVAWYQQKPGKAPKLLIYSASYRYTGVPDRFSGSGSGTDFTLTISSLQPEDFAVYYCQQHYITPLTFGAGTKVEIK
notes: sacituzumab VH 63, 65 -> H
Does B10 bind [9]?
Result: binds

B11: MYT12388 (antibody, V domains shown)
VH: QVQLVQSGAEVKKPGASVKVSCKASGYTFTTAGMQWVRQAPGQGLEWMGWINTHSGVPKYAEDFKGRVTISADTSTSTAYLQLSSLKSEDTAVYYCARSGFGSSYWYFDVWGQGTLVTVSS
VL: DIQMTQSPSSLSASVGDRVTITCKASQHVSTAVAWYQQKPGKAPKLLIYSHSYRYTGVPSRFSGSGSGTDFTLTISSLQPEDFAVYYCQQHYITPLTFGQGTKLEIK
notes: datopotamab VL 28, 51 substituted
Does B11 bind [10]?
Result: binds
